# In the supplement of paper PMC10567573:
# B1: RAD54B (parent)
# chain: YVQEKRDGLKRRQQLEEELLRAKI
# Variants of: B1
# Experiment: protein stability index of a GFP-peptide fusion (GPS, HEK-293T) (PSI 1-6); higher = more stable
# Conditions: c terminus: a fixed tail appended
# 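Note: lentivirally expressed fusions sorted by FACS into six bins by GFP to DsRed ratio, PSI derived from sequencing read proportions per bin multiplied by bin number.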
row,Variant,protein stability index
1,YVQERRDGLKRRQQLEEELLRAKI,1.86
2,YVQESRDGLKRRQQLEEELLRAKI,2.56
3,YVQETRDGLKRRQQLEEELLRAKI,1.74
4,YVQEVRDGLKRRQQLEEELLRAKI,2.1
5,YVQEWRDGLKRRQQLEEELLRAKI,2.11
6,YVQEYRDGLKRRQQLEEELLRAKI,2.4
7,YVQEKADGLKRRQQLEEELLRAKI,2.26
8,YVQEKCDGLKRRQQLEEELLRAKI,2.32
9,YVQEKDDGLKRRQQLEEELLRAKI,2.87
10,YVQEKEDGLKRRQQLEEELLRAKI,3.26
11,YVQEKFDGLKRRQQLEEELLRAKI,2.14
12,YVQEKGDGLKRRQQLEEELLRAKI,2.39
13,YVQEKHDGLKRRQQLEEELLRAKI,2.1
14,YVQEKIDGLKRRQQLEEELLRAKI,2.66
15,YVQEKKDGLKRRQQLEEELLRAKI,1.96
16,YVQEKLDGLKRRQQLEEELLRAKI,2.46
17,YVQEKMDGLKRRQQLEEELLRAKI,2.12
18,YVQEKNDGLKRRQQLEEELLRAKI,2.31
19,YVQEKPDGLKRRQQLEEELLRAKI,1.94
20,YVQEKQDGLKRRQQLEEELLRAKI,2.39
21,YVQEKSDGLKRRQQLEEELLRAKI,1.75
22,YVQEKTDGLKRRQQLEEELLRAKI,2.49
23,YVQEKVDGLKRRQQLEEELLRAKI,2.23
24,YVQEKWDGLKRRQQLEEELLRAKI,2.07

row,Variant,protein stability index
1,YVQEKYDGLKRRQQLEEELLRAKI,2.18
2,YVQEKRAGLKRRQQLEEELLRAKI,1.87
3,YVQEKRCGLKRRQQLEEELLRAKI,3.13
4,YVQEKREGLKRRQQLEEELLRAKI,1.96
5,YVQEKRFGLKRRQQLEEELLRAKI,1.54
6,YVQEKRGGLKRRQQLEEELLRAKI,1.88
7,YVQEKRHGLKRRQQLEEELLRAKI,1.67
8,YVQEKRIGLKRRQQLEEELLRAKI,2.13
9,YVQEKRKGLKRRQQLEEELLRAKI,2.16
10,YVQEKRLGLKRRQQLEEELLRAKI,1.46
11,YVQEKRMGLKRRQQLEEELLRAKI,1.79
12,YVQEKRNGLKRRQQLEEELLRAKI,1.81
13,YVQEKRPGLKRRQQLEEELLRAKI,1.88
14,YVQEKRQGLKRRQQLEEELLRAKI,2.21
15,YVQEKRRGLKRRQQLEEELLRAKI,2.37
16,YVQEKRSGLKRRQQLEEELLRAKI,2.37
17,YVQEKRTGLKRRQQLEEELLRAKI,3.69
18,YVQEKRVGLKRRQQLEEELLRAKI,1.47
19,YVQEKRWGLKRRQQLEEELLRAKI,2.14
20,YVQEKRYGLKRRQQLEEELLRAKI,1.39
21,YVQEKRDALKRRQQLEEELLRAKI,1.82
22,YVQEKRDCLKRRQQLEEELLRAKI,1.98
23,YVQEKRDDLKRRQQLEEELLRAKI,2.27
24,YVQEKRDELKRRQQLEEELLRAKI,2.59

row,Variant,protein stability index
1,YVQEKRDFLKRRQQLEEELLRAKI,2.27
2,YVQEKRDHLKRRQQLEEELLRAKI,1.92
3,YVQEKRDILKRRQQLEEELLRAKI,1.99
4,YVQEKRDKLKRRQQLEEELLRAKI,2.33
5,YVQEKRDLLKRRQQLEEELLRAKI,2.45
6,YVQEKRDMLKRRQQLEEELLRAKI,2.29
7,YVQEKRDNLKRRQQLEEELLRAKI,1.49
8,YVQEKRDPLKRRQQLEEELLRAKI,2.12
9,YVQEKRDQLKRRQQLEEELLRAKI,2.01
10,YVQEKRDRLKRRQQLEEELLRAKI,2.28
11,YVQEKRDSLKRRQQLEEELLRAKI,1.99
12,YVQEKRDTLKRRQQLEEELLRAKI,1.74
13,YVQEKRDVLKRRQQLEEELLRAKI,2.11
14,YVQEKRDWLKRRQQLEEELLRAKI,3.6
15,YVQEKRDYLKRRQQLEEELLRAKI,2.12
16,YVQEKRDGAKRRQQLEEELLRAKI,2.21
17,YVQEKRDGCKRRQQLEEELLRAKI,2.06
18,YVQEKRDGDKRRQQLEEELLRAKI,2.92
19,YVQEKRDGEKRRQQLEEELLRAKI,2.85
20,YVQEKRDGFKRRQQLEEELLRAKI,2.02
21,YVQEKRDGGKRRQQLEEELLRAKI,2.14
22,YVQEKRDGHKRRQQLEEELLRAKI,2.1
23,YVQEKRDGIKRRQQLEEELLRAKI,2.25
24,YVQEKRDGKKRRQQLEEELLRAKI,1.98

row,Variant,protein stability index
1,YVQEKRDGMKRRQQLEEELLRAKI,2.02
2,YVQEKRDGNKRRQQLEEELLRAKI,2.35
3,YVQEKRDGPKRRQQLEEELLRAKI,2.36
4,YVQEKRDGQKRRQQLEEELLRAKI,2.26
5,YVQEKRDGRKRRQQLEEELLRAKI,1.79
6,YVQEKRDGSKRRQQLEEELLRAKI,1.99
7,YVQEKRDGTKRRQQLEEELLRAKI,1.83
8,YVQEKRDGVKRRQQLEEELLRAKI,1.82
9,YVQEKRDGWKRRQQLEEELLRAKI,1.81
10,YVQEKRDGYKRRQQLEEELLRAKI,1.91
11,YVQEKRDGLARRQQLEEELLRAKI,2.04
12,YVQEKRDGLCRRQQLEEELLRAKI,1.83
13,YVQEKRDGLDRRQQLEEELLRAKI,2.04
14,YVQEKRDGLERRQQLEEELLRAKI,2.58
15,YVQEKRDGLFRRQQLEEELLRAKI,1.6
16,YVQEKRDGLGRRQQLEEELLRAKI,2.28
17,YVQEKRDGLHRRQQLEEELLRAKI,2.4
18,YVQEKRDGLIRRQQLEEELLRAKI,1.97
19,YVQEKRDGLLRRQQLEEELLRAKI,2.28
20,YVQEKRDGLMRRQQLEEELLRAKI,2.46
21,YVQEKRDGLNRRQQLEEELLRAKI,2.41
22,YVQEKRDGLPRRQQLEEELLRAKI,2.55
